Measurements taken from PMC7673040.

How the values were obtained:
[1] = molecular target: ribosome-nascent chain complex bearing the first ~90 amino acids of pPL(ss), labelled with BODIPY-FL on the nascent chain (bovine); assay: other fluorescence titration; equilibrium FRET titration: SRP^TMR titrated into 1 nM RNC^BDP; donor emission at 517 nm; fit to Eq. (4); 25 °C, Assay buffer with 1 mg/mL BSA; no NAC
[2] = molecular target: ribosome-nascent chain complex bearing the first ~90 amino acids of pPL(ss), labelled with BODIPY-FL on the nascent chain (bovine); assay: other fluorescence titration; equilibrium FRET titrations of SRP^TMR into 1 nM RNC^BDP with unlabeled NAC premixed (0-400 nM for RNC(ss), 0-62.5 nM for RNC(ssmt)); global fit to the anti-cooperative co-binding model, Eq. (8); 25 °C, Assay buffer with 1 mg/mL BSA
[3] = molecular target: ribosome-nascent chain complex bearing the first ~90 amino acids of pPL(ssmt), labelled with BODIPY-FL on the nascent chain (bovine) (UniProt P01239); assay: as above
[4] = molecular target: signal recognition particle (SRP), human, labelled with Cy3B on SRP54 (C47) (human) (UniProt P61011); assay: stopped-flow FRET kinetics; as a1 but on RNC(ssmt2); no NAC, no HSW
[5] = molecular target: signal recognition particle (SRP), human, labelled with Cy3B on SRP54 (C47) (human) (UniProt P61011); assay: stopped-flow FRET kinetics; as a1, on RNC(ssmt) of different nascent chain lengths, with 300 nM NAC; fit to a constant kon
[6] = molecular target: signal recognition particle (SRP), human, labelled with Cy3B on SRP54 (C47) (human) (UniProt P61011); assay: stopped-flow FRET kinetics; as a1, on RNC(ss) of different nascent chain lengths, no NAC; kon against nascent chain length fit to Eq. (18)
[7] = molecular target: signal recognition particle (SRP), human, labelled with Cy3B on SRP54 (C47) (human) (UniProt P61011); assay: stopped-flow FRET kinetics
[8] = molecular target: signal recognition particle (SRP), human, labelled with Cy3B on SRP54 (C47) (human) (UniProt P61011); assay: stopped-flow FRET kinetics; as a1 but on RNC(ssmt) with HSW(RRL) (high salt wash from 200 nM rabbit reticulocyte ribosome)
[9] = molecular target: signal recognition particle (SRP), human, labelled with Cy3B on SRP54 (C47) (human) (UniProt P61011); assay: stopped-flow FRET kinetics; as a1 but on RNC(ssmt2) with 300 nM NAC
[10] = molecular target: signal recognition particle (SRP), human, labelled with Cy3B on SRP54 (C47) (human) (UniProt P61011); assay: stopped-flow FRET kinetics; as a1, on RNC(ss) of different nascent chain lengths, with 300 nM NAC; kon against nascent chain length fit to Eq. (18)
[11] = molecular target: signal recognition particle (SRP), human, labelled with Cy3B on SRP54 (C47) (human) (UniProt P61011); assay: stopped-flow FRET kinetics; as a1, on RNC(ssmt) of different nascent chain lengths, no NAC; fit to a constant kon
[12] = molecular target: signal recognition particle (SRP), human, labelled with Cy3B on SRP54 (C47) (human) (UniProt P61011); assay: stopped-flow FRET kinetics; as a1 but on RNC(ssmt) with 300 nM NAC (saturating)
[13] = molecular target: signal recognition particle (SRP), human, labelled with Cy3B on SRP54 (C47) (human) (UniProt P61011); assay: stopped-flow FRET kinetics; as a1 but on RNC(ssmt2) with HSW(RRL)
[14] = molecular target: signal recognition particle (SRP), human, labelled with Cy3B on SRP54 (C47) (human) (UniProt P61011); assay: stopped-flow FRET kinetics; as a1 but SRP^Cy3B pre-incubated with 200 nM RNC(ssmt); no NAC, no HSW

Row | Kd [1] [nM] | KD for NAC-bound RNC (α•Kd,SRP) [2] [nM] | Kd [2] [nM] | KD for NAC-bound RNC (α•Kd,SRP) [3] [nM] | fold lower kon than on RNC(ss) [4] [fold] | kon [5] [M⁻¹ s⁻¹] | kon,max (fit of kon against nascent chain length) [6] [M⁻¹ s⁻¹] | kon,min (fit of kon against nascent chain length) [6] [M⁻¹ s⁻¹] | kon [7] [M⁻¹ s⁻¹] | fold reduction of kon by HSW(RRL) [8] [fold] | fold lower kon than on RNC(ss) [9] [fold] | kon,max (fit of kon against nascent chain length) [10] [M⁻¹ s⁻¹] | kon,min (fit of kon against nascent chain length) [10] [M⁻¹ s⁻¹] | kon [11] [M⁻¹ s⁻¹] | fold lower kon than on RNC(ss) [12] [fold] | fold lower kon than on RNC(ss) [13] [fold] | kon [14] [M⁻¹ s⁻¹] | Substance
1 | 0.44 | 2.4 | 0.36 | 4.5 | – | – | – | – | – | – | – | – | – | – | – | – | – | signal recognition particle (SRP), human, labelled with tetramethylrhodamine (TMR) at residue 12 of SRP54 (from UniProt P61011 1-504; P09132 1-144; P49458 1-86; P37108 1-136; Q9UHB9 1-627; O76094 1-671) (complex)
2 | – | – | – | – | 20 | 13000 | 940000 | 400000 | 1e+06 | 20 | 100 | 1.3e+06 | 22000 | 570000 | 40 | 100 | 500000 | soluble SRP receptor SRαβΔTM with the GTPase-deficient mutation SRα R458A, labelled with Atto647n (from UniProt P08240 1-638; Q9Y5M8 1-271) (complex)
